Tests used:
[1] = molecular target: T1, soluble mouse GPNMB-Fc polypeptide (Fc of human IgG1 or mouse IgG2A, not specified for the assay) (mouse, UniProt Q99P91 23-502); assay: FACS, Fab2 blocking moGPNMB-Fc binding to SVEC4-10 cells
T1 construct: extracellular domain; also called moGPNMB-Fc; mGPNMB; not shown: Fc region of human IgG1 or mouse IgG2A; in the Fab2 assay detected with anti-human IgG1 secondary antibody
T1 sequence (looked up): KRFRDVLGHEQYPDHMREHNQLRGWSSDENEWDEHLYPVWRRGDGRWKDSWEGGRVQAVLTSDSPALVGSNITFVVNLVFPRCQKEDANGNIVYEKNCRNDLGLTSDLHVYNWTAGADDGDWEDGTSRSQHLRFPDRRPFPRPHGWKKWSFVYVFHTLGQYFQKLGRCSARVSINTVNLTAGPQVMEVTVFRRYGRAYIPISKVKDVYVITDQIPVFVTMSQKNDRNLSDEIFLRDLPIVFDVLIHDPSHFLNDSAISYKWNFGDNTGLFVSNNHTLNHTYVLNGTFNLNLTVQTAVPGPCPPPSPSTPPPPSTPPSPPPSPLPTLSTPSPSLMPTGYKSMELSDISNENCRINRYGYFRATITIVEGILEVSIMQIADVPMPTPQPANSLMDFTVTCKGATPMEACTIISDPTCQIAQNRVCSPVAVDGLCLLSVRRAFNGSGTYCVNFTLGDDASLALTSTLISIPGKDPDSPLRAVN
Protocol: Purified recombinant Fab2 fragments of select anti-GPNMB antibodies of the present disclosure were produced through transient transfection and purified. Briefly, 2 ug/mL soluble mouse or human GPNMB-Fc diluted in binding buffer was pre-complexed with increasing concentrations of anti-GPNMB Fab2 fragments in 96-well plates. Subsequently, 100,000 SVEC4-10 cells were added per well and incubated on ice for 30 minutes. Soluble moGPNMB-Fc or huGPNMB-Fc bound to cell surface was detected with fluorescent anti-human IgG1 secondary antibody and measured on FACSCanto. IC50 and EC50 values based on changes in MFI values were calculated for each antibody.

[2] = molecular target: T2, full-length untagged human GPNMB expressed on cells (human, UniProt Q14956 23-572); assay: cell-based or functional assay
T2 sequence: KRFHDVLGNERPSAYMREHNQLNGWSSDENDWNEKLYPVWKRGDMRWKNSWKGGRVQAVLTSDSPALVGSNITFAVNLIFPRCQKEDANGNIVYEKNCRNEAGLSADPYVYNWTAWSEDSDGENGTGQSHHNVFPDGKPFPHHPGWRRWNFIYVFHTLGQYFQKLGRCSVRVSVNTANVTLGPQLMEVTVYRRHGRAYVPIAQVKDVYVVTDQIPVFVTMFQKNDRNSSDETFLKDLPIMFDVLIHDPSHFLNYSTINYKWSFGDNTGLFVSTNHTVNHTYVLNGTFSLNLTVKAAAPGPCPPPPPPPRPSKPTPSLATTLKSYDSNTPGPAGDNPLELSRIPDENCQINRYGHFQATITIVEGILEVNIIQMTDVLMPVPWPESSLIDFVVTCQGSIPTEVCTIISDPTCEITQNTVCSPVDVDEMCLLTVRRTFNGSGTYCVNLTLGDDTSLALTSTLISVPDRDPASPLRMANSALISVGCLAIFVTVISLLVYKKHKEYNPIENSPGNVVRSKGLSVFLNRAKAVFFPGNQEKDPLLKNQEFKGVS

[3] = molecular target: T2, full-length untagged human GPNMB …; assay: cell-based or functional assay; remark: listed apart in the source
[4] = molecular target: T3, soluble human GPNMB (recombinant extracellular domain) (human, UniProt Q14956 23-498); assay: SPR Biacore, IgG captured
T3 construct: also called huGPNMB; recombinant human GPNMB extracellular domain; not shown: C-terminal polyhistidine or Avi-His tag
T3 sequence: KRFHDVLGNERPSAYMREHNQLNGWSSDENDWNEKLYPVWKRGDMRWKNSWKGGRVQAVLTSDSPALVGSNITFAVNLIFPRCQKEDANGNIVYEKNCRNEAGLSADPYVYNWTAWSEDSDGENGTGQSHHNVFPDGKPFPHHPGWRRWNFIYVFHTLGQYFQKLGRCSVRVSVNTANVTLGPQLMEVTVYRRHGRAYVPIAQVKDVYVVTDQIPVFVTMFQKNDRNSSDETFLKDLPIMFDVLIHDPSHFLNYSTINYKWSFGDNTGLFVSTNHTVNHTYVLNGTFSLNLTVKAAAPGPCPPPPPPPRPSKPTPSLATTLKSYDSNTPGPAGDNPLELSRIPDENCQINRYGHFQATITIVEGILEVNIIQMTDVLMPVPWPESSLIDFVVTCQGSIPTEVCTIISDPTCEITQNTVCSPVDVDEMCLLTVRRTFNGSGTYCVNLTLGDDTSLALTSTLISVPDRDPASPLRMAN
Protocol: (§1) Binding kinetics of the humanized and affinity matured anti-GPNMB antibodies described above were evaluated using the Biacore T200 (Cytiva). Briefly, IgGs were diluted to 10 μg/mL and captured using a Protein A/G (ThermioFisher, #21186) surface on a CM5 chip that was prepared by amine coupling according to the instrument manufacturer's recommendations. The captured antibodies were tested for their ability to bind human, cynomolgus monkey, and mouse GPNMB recombinant proteins as follows.
(§2) Human, cynomolgus, and mouse GPNMB analytes were diluted in running buffer (HBS-EP+, Teknova, #8022, with 0.5 mg/ml BSA, MP Biomedicals LLC, #820451), to a concentration of 300 nM, then diluted 3-fold serially to 100 nM, 33 nM, and 11 nM. Each sample was injected for 2 minutes to allow association, followed by dissociation in buffer alone for 10 minutes. Each sample injection was followed by the regeneration of the chip with three 30-second injections of 10 mM glycine, pH 1.7. Fresh antibody was captured at the beginning of each cycle.
(§3) Data were analyzed using Biacore evaluation software to generate kinetic constants. The equilibrium dissociation constants (KD) were calculated from the fitted association and dissociation rate constants (k-on and k-off) for each of the anti-GPNMB antibodies.

[5] = molecular target: T4, soluble cynomolgus GPNMB (recombinant extracellular domain) (cynomolgus, UniProt Q14956 23-499 (human entry), limits assumed); assay: SPR Biacore, IgG captured
T4 chain: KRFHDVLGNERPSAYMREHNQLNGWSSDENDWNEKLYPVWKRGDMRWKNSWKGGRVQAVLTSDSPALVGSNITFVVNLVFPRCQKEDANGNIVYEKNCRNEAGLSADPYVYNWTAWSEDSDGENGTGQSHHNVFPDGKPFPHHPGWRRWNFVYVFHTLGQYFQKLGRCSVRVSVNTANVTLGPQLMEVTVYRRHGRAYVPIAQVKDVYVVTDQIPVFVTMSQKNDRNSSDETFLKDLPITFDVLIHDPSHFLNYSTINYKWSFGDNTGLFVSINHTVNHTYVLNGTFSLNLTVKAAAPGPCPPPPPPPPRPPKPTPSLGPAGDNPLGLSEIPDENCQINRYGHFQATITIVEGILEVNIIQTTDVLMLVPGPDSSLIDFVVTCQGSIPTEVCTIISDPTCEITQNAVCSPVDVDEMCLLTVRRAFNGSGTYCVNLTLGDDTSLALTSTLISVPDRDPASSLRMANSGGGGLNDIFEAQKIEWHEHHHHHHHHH
Protocol: as §1, §2, §3

[6] = molecular target: T2, full-length untagged human GPNMB …; assay: FACS titration, FS293-huGPNMB+ cells
Protocol: Affinity matured anti-GPNMB antibodies of the present disclosure were examined to determine their ability to bind human and mouse GPNMB expressed on FS293-huGPNMB+ or B16F10 cells, respectively. Cell-based affinity measurements were performed to ascertain the apparent affinities of anti-GPNMB antibodies to cell-surface expressed GPNMB. Serial dilutions of anti-GPNMB antibodies of the present disclosure were added to 100,000 FS293-huGPNMB+ or B16F10 cells and allowed to achieve binding equilibrium at 4° C. After addition of fluorescently labeled secondary antibody and brief washing steps, MFI values as a function of titrated antibody concentration were recorded via FACS analysis. Equilibrium binding curves were fit using nonlinear regression analysis with Graphpad Prism 6 software.

[7] = molecular target: T2, full-length untagged human GPNMB …; assay: cell-based or functional assay; remark: listed apart in the source
[8] = molecular target: T5, soluble mouse GPNMB (recombinant extracellular domain) (mouse, UniProt Q99P91 23-502); assay: SPR Biacore T200, IgG captured on Protein A/G; nb = no binding observed
T5 construct: also called moGPNMB; not shown: C-terminal polyhistidine or Avi-His tag
T5 sequence: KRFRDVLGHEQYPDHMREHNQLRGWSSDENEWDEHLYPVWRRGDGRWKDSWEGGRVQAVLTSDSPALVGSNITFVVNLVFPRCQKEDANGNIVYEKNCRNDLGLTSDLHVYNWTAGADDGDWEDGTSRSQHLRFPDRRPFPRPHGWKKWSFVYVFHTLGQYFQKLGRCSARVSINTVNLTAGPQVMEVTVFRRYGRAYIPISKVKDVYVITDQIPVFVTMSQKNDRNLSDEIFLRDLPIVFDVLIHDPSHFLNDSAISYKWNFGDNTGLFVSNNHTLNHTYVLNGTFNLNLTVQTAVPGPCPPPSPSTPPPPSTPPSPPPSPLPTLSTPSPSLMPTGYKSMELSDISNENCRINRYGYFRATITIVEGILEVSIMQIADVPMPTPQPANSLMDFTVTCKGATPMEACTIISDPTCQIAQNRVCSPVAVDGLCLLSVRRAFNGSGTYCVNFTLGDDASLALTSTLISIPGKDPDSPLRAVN

| Binder | IC50 [1] [nM] | EC50 PDL1 [2] [nM] | Fold Increase CD40 (max response at 1 µg/ml) [2] [fold] | Fold Increase PDL1 (max response at 1 µg/ml) [2] [fold] | EC50 GCase [3] [nM] | Fold Increase GCase (max response at 1 µg/ml) [3] [fold] | Kd [4] [nM] | koff [4] [s⁻¹] | kon [4] [M⁻¹ s⁻¹] | Kd [5] [nM] | koff [5] [s⁻¹] | kon [5] [M⁻¹ s⁻¹] | EC50 [6] [nM] | Inflammasome: Fold Decrease IL-1β (max response at 0.3 µg/ml) [7] [fold] | binding result [8] |
| --- | --- | --- | --- | --- | --- | --- | --- | --- | --- | --- | --- | --- | --- | --- | --- |
| recombinant Fab2 fragment of anti-GPNMB antibody GPN-52 (other, also called GPN-52 Fab2) VH: DVQLQESGPGLVKPSQTVFLTCTVTGISITTGNYRWSWIRQFPGNKLEWIGYIYYSGTITYNPSLTSRITITRDTPKNEFFLEMNSLTAEDTATYYCARDLTHWYFDVWGTGTTVTVSS VL: not shown | 3.19 | – | – | – | – | – | – | – | – | – | – | – | – | – | – |
| anti-GPNMB antibody GPN-97 (antibody, V domains shown) VH: QVQLVQSGAEVKKPGASVKVSCKASGYTFTSYWMHWVRQAPGQGLEWMGEINPYDQRTNYAQKFQGRVTMTVDKSTSTVYMELSSLRSEDTAVYYCARSTGNYAWFAYWGQGTLVTVSS VL: DIVMTQSPDSLAVSLGERATINCKTSQDVSPSLAWYQQKPGQPPKLLIYSGSYRYTGVPDRFSGSGSGTDFTLTISSLQAEDVAVYYCQQHYSIPLTFGGGTKVEIK | – | 0.75 | 1.73 | 2.05 | 0.22 | 1.36 | 6.7 | 0.00054 | 81000 | 8.2 | 0.00065 | 79000 | 0.546 | 0.476 | no binding (tested: 300 nM highest analyte concentration) |
| anti-GPNMB antibody GPN-98 (antibody, V domains shown) VH: QVQLVQSGAEVKKPGASVKVSCKASGYTFTSYWMHWVRQAPGQGLEWMGEINPYDQRTNYAQKFQGRVTMTVDKSTSTVYMELSSLRSEDTAVYYCARSTGNYAWFAYWGQGTLVTVSS VL: DIVMTQSPDSLAVSLGERATINCKASQDVSPSLAWYQQKPGQPPKLLIYSASYRYTGVPDRFSGSGSGTDFTLTISSLQAEDVAVYYCQQHYSIPLTFGGGTKVEIK | – | 1.24 | 1.71 | 1.97 | 0.25 | 1.39 | 11.9 | 0.00091 | 76000 | 14.6 | 0.0011 | 74000 | 0.407 | 0.664 | no binding (tested: 300 nM highest analyte concentration) |
| recombinant Fab2 fragment of anti-GPNMB antibody GPN-48 (other, also called GPN-48 Fab2) VH: QVQLQQSGPELVKPGASVKLSCRASGYGFSSFWMNWVKQRPGKGLEWIGRIYPGKGDTLYNGKFKDKATLTADESSSTAYMQLSSLTSEDSAVYFCARSIYYYDYWYFDVWDTGTTVTVSS VL: DIVMTQSHKFMSTSVGDRVNITCKASQDVNSAIAWYQQKPGQSPKLLIYSASYRFIGVPDRFTGSGSGTGFTFTISSVQAEDLAVYYCQQHYTTPLTFGAGTKLELK | 2.33 | – | – | – | – | – | – | – | – | – | – | – | – | – | – |
| recombinant Fab2 fragment of anti-GPNMB antibody GPN-43 (other, also called GPN-43 Fab2) VH: EVQLQQSGPELVKPGASVKISCKASGYTFTDYYMNWVRQSHGKSLEWIGDINPYHGGSTYNQKIKVKATLTVDKSSSTAYMELRSLTSEDSAVYYCARNWPYFDYWGQGTTLTVSS VL: DIQMTQSPASLSASVGETVTITCRASENIYSFLVWYQQKQGKSPQLLVYNAKTLAEGVPSRFSGSGSGTQFSLKISSLQPEDFGSYYCQHHFGTPPYTFGGGTKLEIK | 9.42 | – | – | – | – | – | – | – | – | – | – | – | – | – | – |

From patent publication US20250270343A1 (Alector, published 2025)
